{"source": "patent US20260242735A1", "about": "(UNIVERSIT T BASEL, published 2026)", "assay_in_all_cases": "BLI (Octet R8), avidity format: biotinylated CD33 on streptavidin sensor, Refmab #3 as analyte at 500 nM;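 also: analyte association recorded over 300 s, then dissociation followed for 900 s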", "key": {"[1]": {"molecular_target": "CD33 variant W22R (recombinant, biotinylated) (human, UniProt P20138 18-259, biotinylated with EZ-Link Sulfo-NHS-LC-Biotin (sites not given))", "sequence (P20138 other isoform, or with tags, fused parts or gaps W22R W22R)": "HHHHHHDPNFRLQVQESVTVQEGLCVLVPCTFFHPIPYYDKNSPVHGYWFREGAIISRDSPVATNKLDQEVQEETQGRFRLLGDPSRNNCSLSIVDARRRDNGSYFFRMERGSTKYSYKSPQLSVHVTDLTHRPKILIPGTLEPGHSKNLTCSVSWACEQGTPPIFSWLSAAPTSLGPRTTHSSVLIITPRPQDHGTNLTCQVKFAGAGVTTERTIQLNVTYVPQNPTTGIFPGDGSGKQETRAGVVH"}, "[2]": {"molecular_target": "CD33 variant F21I (recombinant, biotinylated) (human, UniProt P20138 22-259, biotinylated with EZ-Link Sulfo-NHS-LC-Biotin (sites not given))", "sequence (P20138 other isoform, or with tags, fused parts or gaps F21I F21I)": "as the sequence (P20138 other isoform, or with tags, fused parts or gaps W22R W22R) above, with F10I, R11W counted along it"}, "[3]": {"molecular_target": "CD33 variant F21N (recombinant, biotinylated) (human, UniProt P20138 22-259, biotinylated with EZ-Link Sulfo-NHS-LC-Biotin (sites not given))", "sequence (P20138 other isoform, or with tags, fused parts or gaps F21N F21N)": "as the sequence (P20138 other isoform, or with tags, fused parts or gaps W22R W22R) above, with F10N, R11W counted along it"}, "[4]": {"molecular_target": "CD33 variant F21V (recombinant, biotinylated) (human, UniProt P20138 22-259, biotinylated with EZ-Link Sulfo-NHS-LC-Biotin (sites not given))", "sequence (P20138 other isoform, or with tags, fused parts or gaps F21V F21V)": "as the sequence (P20138 other isoform, or with tags, fused parts or gaps W22R W22R) above, with F10V, R11W counted along it"}, "[5]": {"molecular_target": "CD33 variant F21S (recombinant, biotinylated) (human, UniProt P20138 22-259, biotinylated with EZ-Link Sulfo-NHS-LC-Biotin (sites not given))", "sequence (P20138 other isoform, or with tags, fused parts or gaps F21S F21S)": "as the sequence (P20138 other isoform, or with tags, fused parts or gaps W22R W22R) above, with F10S, R11W counted along it"}, "[6]": {"molecular_target": "CD33 variant F44P (recombinant, biotinylated) (human, UniProt P20138 18-259, biotinylated with EZ-Link Sulfo-NHS-LC-Biotin (sites not given))", "sequence (P20138 other isoform, or with tags, fused parts or gaps F44P F44P)": "as the sequence (P20138 other isoform, or with tags, fused parts or gaps W22R W22R) above, with R11W, F33P counted along it"}, "[7]": {"molecular_target": "CD33 variant Y50D (recombinant, biotinylated) (human, UniProt P20138 18-259, biotinylated with EZ-Link Sulfo-NHS-LC-Biotin (sites not given))", "sequence (P20138 other isoform, or with tags, fused parts or gaps Y50D Y50D)": "as the sequence (P20138 other isoform, or with tags, fused parts or gaps W22R W22R) above, with R11W, Y39D counted along it"}, "[8]": {"molecular_target": "CD33 variant N20V (recombinant, biotinylated) (human, UniProt P20138 21-259, biotinylated with EZ-Link Sulfo-NHS-LC-Biotin (sites not given))", "sequence (P20138 other isoform, or with tags, fused parts or gaps N20V N20V)": "as the sequence (P20138 other isoform, or with tags, fused parts or gaps W22R W22R) above, with N9V, R11W counted along it"}, "[9]": {"molecular_target": "T1, CD33 wild type (recombinant, biotinylated) (human, UniProt P20138 18-259, biotinylated with EZ-Link Sulfo-NHS-LC-Biotin (sites not given))", "T1 construct": "also called WT; CD33 wt", "T1 sequence (P20138 other isoform, or with tags, fused parts or gaps)": "as the sequence (P20138 other isoform, or with tags, fused parts or gaps W22R W22R) above, with R11W counted along it"}, "[10]": {"molecular_target": "CD33 variant N20H (recombinant, biotinylated) (human, UniProt P20138 21-259, biotinylated with EZ-Link Sulfo-NHS-LC-Biotin (sites not given))", "sequence (P20138 other isoform, or with tags, fused parts or gaps N20H N20H)": "as the sequence (P20138 other isoform, or with tags, fused parts or gaps W22R W22R) above, with N9H, R11W counted along it"}, "[11]": {"molecular_target": "CD33 variant F21H (recombinant, biotinylated) (human, UniProt P20138 22-259, biotinylated with EZ-Link Sulfo-NHS-LC-Biotin (sites not given))", "sequence (P20138 other isoform, or with tags, fused parts or gaps F21H F21H)": "as the sequence (P20138 other isoform, or with tags, fused parts or gaps W22R W22R) above, with F10H, R11W counted along it"}, "[12]": {"molecular_target": "CD33 variant W22K (recombinant, biotinylated) (human, UniProt P20138 18-259, biotinylated with EZ-Link Sulfo-NHS-LC-Biotin (sites not given))", "sequence (P20138 other isoform, or with tags, fused parts or gaps W22K W22K)": "as the sequence (P20138 other isoform, or with tags, fused parts or gaps W22R W22R) above, with R11K counted along it"}, "[13]": {"molecular_target": "CD33 variant N20E (recombinant, biotinylated) (human, UniProt P20138 21-259, biotinylated with EZ-Link Sulfo-NHS-LC-Biotin (sites not given))", "sequence (P20138 other isoform, or with tags, fused parts or gaps N20E N20E)": "as the sequence (P20138 other isoform, or with tags, fused parts or gaps W22R W22R) above, with N9E, R11W counted along it"}, "[14]": {"molecular_target": "CD33 variant Y50R (recombinant, biotinylated) (human, UniProt P20138 18-259, biotinylated with EZ-Link Sulfo-NHS-LC-Biotin (sites not given))", "sequence (P20138 other isoform, or with tags, fused parts or gaps Y50R Y50R)": "as the sequence (P20138 other isoform, or with tags, fused parts or gaps W22R W22R) above, with R11W, Y39R counted along it"}, "[15]": {"molecular_target": "CD33 double variant Y50H_H49H (recombinant, biotinylated) (human, UniProt P20138 18-259, biotinylated with EZ-Link Sulfo-NHS-LC-Biotin (sites not given))", "sequence (P20138 other isoform, or with tags, fused parts or gaps Y50H H49H Y50H H49H)": "as the sequence (P20138 other isoform, or with tags, fused parts or gaps W22R W22R) above, with R11W, Y38H, Y39H counted along it"}, "[16]": {"molecular_target": "CD33 variant N20K (recombinant, biotinylated) (human, UniProt P20138 21-259, biotinylated with EZ-Link Sulfo-NHS-LC-Biotin (sites not given))", "sequence (P20138 other isoform, or with tags, fused parts or gaps N20K N20K)": "as the sequence (P20138 other isoform, or with tags, fused parts or gaps W22R W22R) above, with N9K, R11W counted along it"}, "[17]": {"molecular_target": "CD33 variant F21Q (recombinant, biotinylated) (human, UniProt P20138 22-259, biotinylated with EZ-Link Sulfo-NHS-LC-Biotin (sites not given))", "sequence (P20138 other isoform, or with tags, fused parts or gaps F21Q F21Q)": "as the sequence (P20138 other isoform, or with tags, fused parts or gaps W22R W22R) above, with F10Q, R11W counted along it"}, "[18]": {"molecular_target": "CD33 variant W22E (recombinant, biotinylated) (human, UniProt P20138 18-259, biotinylated with EZ-Link Sulfo-NHS-LC-Biotin (sites not given))", "sequence (P20138 other isoform, or with tags, fused parts or gaps W22E W22E)": "as the sequence (P20138 other isoform, or with tags, fused parts or gaps W22R W22R) above, with R11E counted along it"}, "[19]": {"molecular_target": "CD33 variant N20G (recombinant, biotinylated) (human, UniProt P20138 21-259, biotinylated with EZ-Link Sulfo-NHS-LC-Biotin (sites not given))", "sequence (P20138 other isoform, or with tags, fused parts or gaps N20G N20G)": "as the sequence (P20138 other isoform, or with tags, fused parts or gaps W22R W22R) above, with N9G, R11W counted along it"}, "[20]": {"molecular_target": "CD33 variant F21L (recombinant, biotinylated) (human, UniProt P20138 22-259, biotinylated with EZ-Link Sulfo-NHS-LC-Biotin (sites not given))", "sequence (P20138 other isoform, or with tags, fused parts or gaps F21L F21L)": "as the sequence (P20138 other isoform, or with tags, fused parts or gaps W22R W22R) above, with F10L, R11W counted along it"}, "[21]": {"molecular_target": "CD33 variant F21M (recombinant, biotinylated) (human, UniProt P20138 22-259, biotinylated with EZ-Link Sulfo-NHS-LC-Biotin (sites not given))", "sequence (P20138 other isoform, or with tags, fused parts or gaps F21M F21M)": "as the sequence (P20138 other isoform, or with tags, fused parts or gaps W22R W22R) above, with F10M, R11W counted along it"}, "[22]": {"molecular_target": "CD33 variant Y50K (recombinant, biotinylated) (human, UniProt P20138 18-259, biotinylated with EZ-Link Sulfo-NHS-LC-Biotin (sites not given))", "sequence (P20138 other isoform, or with tags, fused parts or gaps Y50K Y50K)": "as the sequence (P20138 other isoform, or with tags, fused parts or gaps W22R W22R) above, with R11W, Y39K counted along it"}, "[23]": {"molecular_target": "CD33 variant W22T (recombinant, biotinylated) (human, UniProt P20138 18-259, biotinylated with EZ-Link Sulfo-NHS-LC-Biotin (sites not given))", "sequence (P20138 other isoform, or with tags, fused parts or gaps W22T W22T)": "as the sequence (P20138 other isoform, or with tags, fused parts or gaps W22R W22R) above, with R11T counted along it"}, "[24]": {"molecular_target": "CD33 variant W22D (recombinant, biotinylated) (human, UniProt P20138 18-259, biotinylated with EZ-Link Sulfo-NHS-LC-Biotin (sites not given))", "sequence (P20138 other isoform, or with tags, fused parts or gaps W22D W22D)": "as the sequence (P20138 other isoform, or with tags, fused parts or gaps W22R W22R) above, with R11D counted along it"}}}
{"binder": "Refmab #3 (antibody, human IgG1, V domains shown) VH: QVQLVQSGAEVKKPGSSVKVSCKASGYTFTDYNMHWVRQAPGQGLEWIGYIYPYNGGTGYNQKFKSKATITADESTNTAYMELSSLRSEDTAVYYCARGRPAMDYWGQGTLVTVSS VL: DIQMTQSPSSLSASVGDRVTITCRASESVDNYGISFMNWFQQKPGKAPKLLIYAASNQGSGVPSRFSGSGSGTDFTLTISSLQPDDFATYYCQQSKEVPWTFGQGTKVEIK", "values": [{"measurement": "% WT binding", "setting": "[1]", "value": 0.86, "unit": "% WT binding"}, {"measurement": "% WT binding", "setting": "[2]", "value": 0, "unit": "% WT binding"}, {"measurement": "% WT binding", "setting": "[3]", "value": 0, "unit": "% WT binding"}, {"measurement": "% WT binding", "setting": "[4]", "value": 0, "unit": "% WT binding"}, {"measurement": "% WT binding", "setting": "[5]", "value": 0, "unit": "% WT binding"}, {"measurement": "% WT binding", "setting": "[6]", "value": 0, "unit": "% WT binding"}, {"measurement": "% WT binding", "setting": "[7]", "value": 128, "unit": "% WT binding"}, {"measurement": "% WT binding", "setting": "[8]", "value": 6.62, "unit": "% WT binding"}, {"measurement": "% WT binding", "setting": "[9]", "value": 100, "unit": "% WT binding"}, {"measurement": "% WT binding", "setting": "[10]", "value": 5.39, "unit": "% WT binding"}, {"measurement": "% WT binding", "setting": "[11]", "value": 0, "unit": "% WT binding"}, {"measurement": "% WT binding", "setting": "[12]", "value": 0, "unit": "% WT binding"}, {"measurement": "% WT binding", "setting": "[13]", "value": 0, "unit": "% WT binding"}, {"measurement": "% WT binding", "setting": "[14]", "value": 93.1, "unit": "% WT binding"}, {"measurement": "% WT binding", "setting": "[15]", "value": 58.5, "unit": "% WT binding"}, {"measurement": "% WT binding", "setting": "[16]", "value": 0, "unit": "% WT binding"}, {"measurement": "% WT binding", "setting": "[17]", "value": 0, "unit": "% WT binding"}, {"measurement": "% WT binding", "setting": "[18]", "value": 23.5, "unit": "% WT binding"}, {"measurement": "% WT binding", "setting": "[19]", "value": 0, "unit": "% WT binding"}, {"measurement": "% WT binding", "setting": "[20]", "value": 0, "unit": "% WT binding"}, {"measurement": "% WT binding", "setting": "[21]", "value": 0, "unit": "% WT binding"}, {"measurement": "% WT binding", "setting": "[22]", "value": 73.9, "unit": "% WT binding"}, {"measurement": "% WT binding", "setting": "[23]", "value": 5.25, "unit": "% WT binding"}, {"measurement": "% WT binding", "setting": "[24]", "value": 6.42, "unit": "% WT binding"}]}
